Bridges are numbered along the chain shown (N, C = ends). [ ]: non-standard residue; d: D form. Ahx = NCCCCCC(=O)O; βAla = NCCC(=O)O

In assay [1] the target is T1, MC1R (mouse (endogenous in B16/F10), UniProt Q01727 1-315).
T1 construct: also called MCR1R
Kind of assay: radioligand binding; MC1R binding affinity (Ki) of the unlabelled peptides determined in B16/F10 melanoma cells; the competing ligand is not named. As to conditions: one partner purified.

In assay [2] the target is T1, MC1R. Briefly: radioligand binding; receptor affinity (Kd) of the 99mTc-labelled peptide; B16/F10 melanoma cells are the only cells named. As to conditions: one partner purified.

T1 sequence (Q01727 whole entry): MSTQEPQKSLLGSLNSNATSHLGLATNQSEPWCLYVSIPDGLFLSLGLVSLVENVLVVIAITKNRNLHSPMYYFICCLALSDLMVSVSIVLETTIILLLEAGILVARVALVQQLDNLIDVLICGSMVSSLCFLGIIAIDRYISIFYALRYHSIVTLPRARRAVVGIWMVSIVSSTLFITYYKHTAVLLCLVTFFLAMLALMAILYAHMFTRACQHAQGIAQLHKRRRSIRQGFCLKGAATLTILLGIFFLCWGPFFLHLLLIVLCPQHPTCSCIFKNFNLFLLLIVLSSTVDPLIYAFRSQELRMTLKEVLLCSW

B1: NAP-NS2, lactam bridge-cyclized H-Cys-Ahx-βAla3-c[Lys4-Glu-His-D-Phe-Arg-Trp-Glu10]-Arg11-Pro-Val-NH2 (peptide)
chain: H-C[Ahx][βAla]KEH[dF]RWERPV-NH2
modifications: lactam 4-10
SMILES: CC(C)[C@H](NC(=O)[C@@H]1CCCN1C(=O)[C@H](CCCNC(=N)N)NC(=O)[C@@H]1CCC(=O)NCCCC[C@H](NC(=O)CCNC(=O)CCCCCNC(=O)[C@@H](N)CS)C(=O)N[C@@H](CCC(=O)O)C(=O)N[C@@H](Cc2c[nH]cn2)C(=O)N[C@H](Cc2ccccc2)C(=O)N[C@@H](CCCNC(=N)N)C(=O)N[C@@H](Cc2c[nH]c3ccccc23)C(=O)N1)C(N)=O
Usually Ki stands for the equilibrium dissociation constant of an inhibitor or competing ligand from its target. In the case of B1, the inhibitory constant (Ki) in assay [1] is 7.1 ± 2.4 nM.

B2: [99mTc(N)(NAP-NS1)(PNP3)]+ (peptide)
chain: CXXXDHFRWG
modifications: Ahx at 2, βAla at 3, Nle at 4 (each written X); D-Phe at 7; C-terminal amide; [99mTc(N)(PNP3)] label (PNP3 = N,N-bis(dimethoxypropylphosphinoethyl)methoxyethylamine)
By Kd is commonly meant a measure of binding affinity in units of concentration. A lower Kd goes with tighter binding. In assay [2], B2 registered a Kd of 7.1 ± 0.5 nM.

B3: NAP-NS1, linear H-Cys-Ahx-βAla-Nle-Asp-His-D-Phe-Arg-Trp-Gly-NH2 (peptide)
chain: CXXXDHFRWG
modifications: Ahx at 2, βAla at 3, Nle at 4 (each written X); D-Phe at 7; C-terminal amide
As for B3, in assay [1], the affinity, expressed as Ki, was 0.9 ± 0.3 nM.

These data come from article PMC5843810 (EJNMMI Radiopharmacy and Chemistry, 2016).
